The text below walks through data of publication PMC3297582, “Spo0A∼P Imposes a Temporal Gate for the Bimodal Expression of Competence in Bacillus subtilis” (PLoS Genetics, 2012).

This data set deals with the molecule itself. Nature of the data set: SEC; Superdex 200 column; Spo0A after phosphorylation with phosphoramidate; buffer not stated. (In general: Size exclusion chromatography separates by hydrodynamic size, large species first.)

B1: Spo0A∼P (phosphorylated form of the response-regulator protein Spo0A) (natural protein, Bacillus subtilis, UniProt P06534 1-267, looked up)
chain: MEKIKVCVADDNRELVSLLSEYIEGQEDMEVIGVAYNGQECLSLFKEKDPDVLVLDIIMPHLDGLAVLERLRESDLKKQPNVIMLTAFGQEDVTKKAVDLGASYFILKPFDMENLVGHIRQVSGNASSVTHRAPSSQSSIIRSSQPEPKKKNLDASITSIIHEIGVPAHIKGYLYLREAISMVYNDIELLGSITKVLYPDIAKKFNTTASRVERAIRHAIEVAWSRGNIDSISSLFGYTVSMTKAKPTNSEFIAMVADKLRLEHKAS
modifications: phosphorylated with phosphoramidate (residue not given; fraction phosphorylated uncertain)
notes: Spo0A, response regulator of Bacillus subtilis, full length, phosphorylated in vitro; also called OA∼P; source: purified following a published protocol [41] as modified [42]; phosphorylated with non-radioactive phosphoramidate
Broadly, the stoichiometry N is a count of units in the complex or per binding partner. In the case of B1, the “stoichiometry N” value was 2.
